Consider 11 molecules from publication PMC2234252 (The Journal of Cell Biology, 2008).

T1: hZwint-1 (human, UniProt O95229 1-277)
T1 sequence (looked up): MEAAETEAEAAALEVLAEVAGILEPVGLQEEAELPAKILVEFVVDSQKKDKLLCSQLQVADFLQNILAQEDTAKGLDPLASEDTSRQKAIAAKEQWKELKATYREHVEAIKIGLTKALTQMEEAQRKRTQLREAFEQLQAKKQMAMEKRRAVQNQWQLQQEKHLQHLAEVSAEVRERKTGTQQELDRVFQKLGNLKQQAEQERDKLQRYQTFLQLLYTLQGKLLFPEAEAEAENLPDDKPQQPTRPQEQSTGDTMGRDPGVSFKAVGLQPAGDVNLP

B1: hZW10 C4 (aa 1–496) (domain or fragment, human, UniProt O43264 1-496, looked up)
chain: MASFVTEVLAHSGRLEKEDLGTRISRLTRRVEEIKGEVCNMISKKYSEFLPSMQSAQGLITQVDKLSEDIDLLKSRIESEVRRDLHVSTGEFTDLKQQLERDSVVLSLLKQLQEFSTAIEEYNCALTEKKYVTGAQRLEEAQKCLKLLKSRKCFDLKILKSLSMELTIQKQNILYHLGEEWQKLIVWKFPPSKDTSSLESYLQTELHLYTEQSHKEEKTPMPPISSVLLAFSVLGELHSKLKSFGQMLLKYILRPLASCPSLHAVIESQPNIVIIRFESIMTNLEYPSPSEVFTKIRLVLEVLQKQLLDLPLDTDLENEKTSTVPLAEMLGDMIWEDLSECLIKNCLVYSIPTNSSKLQQYEEIIQSTEEFENALKEMRFLKGDTTDLLKYARNINSHFANKKCQDVIVAARNLMTSEIHNTVKIIPDSKINVPELPTPDEDNKLEVQKVSNTQYHEVMNLEPENTLDQHSFSLPTCRISESVKKLMELAYQTLLE
B2: hZW10 N1 (aa 52–779) (domain or fragment, human, UniProt O43264 52-779, looked up)
chain: SMQSAQGLITQVDKLSEDIDLLKSRIESEVRRDLHVSTGEFTDLKQQLERDSVVLSLLKQLQEFSTAIEEYNCALTEKKYVTGAQRLEEAQKCLKLLKSRKCFDLKILKSLSMELTIQKQNILYHLGEEWQKLIVWKFPPSKDTSSLESYLQTELHLYTEQSHKEEKTPMPPISSVLLAFSVLGELHSKLKSFGQMLLKYILRPLASCPSLHAVIESQPNIVIIRFESIMTNLEYPSPSEVFTKIRLVLEVLQKQLLDLPLDTDLENEKTSTVPLAEMLGDMIWEDLSECLIKNCLVYSIPTNSSKLQQYEEIIQSTEEFENALKEMRFLKGDTTDLLKYARNINSHFANKKCQDVIVAARNLMTSEIHNTVKIIPDSKINVPELPTPDEDNKLEVQKVSNTQYHEVMNLEPENTLDQHSFSLPTCRISESVKKLMELAYQTLLEATTSSDQCAVQLFYSVRNIFHLFHDVVPTYHKENLQKLPQLAAIHHNNCMYIAHHLLTLGHQFRLRLAPILCDGTATFVDLVPGFRRLGTECFLAQMRAQKGELLERLSSARNFSNMDDEENYSAASKAVRQVLHQLKRLGIVWQDVLPVNIYCKAMGTLLNTAISEVIGKITALEDISTEDGDRLYSLCKTVMDEGPQVFAPLSEESKNKKYQEEVPVYVPKWMPFKELMMMLQASLQEIGDRWADGKGPLAAAFSSSEVKALIRALFQNTERRAAALAKIK
B3: hZW10 C9 (aa 1–139) (domain or fragment, human, UniProt O43264 1-139, looked up)
chain: MASFVTEVLAHSGRLEKEDLGTRISRLTRRVEEIKGEVCNMISKKYSEFLPSMQSAQGLITQVDKLSEDIDLLKSRIESEVRRDLHVSTGEFTDLKQQLERDSVVLSLLKQLQEFSTAIEEYNCALTEKKYVTGAQRLE
B4: hZW10 C3 (aa 1–560) (domain or fragment, human, UniProt O43264 1-560, looked up)
chain: MASFVTEVLAHSGRLEKEDLGTRISRLTRRVEEIKGEVCNMISKKYSEFLPSMQSAQGLITQVDKLSEDIDLLKSRIESEVRRDLHVSTGEFTDLKQQLERDSVVLSLLKQLQEFSTAIEEYNCALTEKKYVTGAQRLEEAQKCLKLLKSRKCFDLKILKSLSMELTIQKQNILYHLGEEWQKLIVWKFPPSKDTSSLESYLQTELHLYTEQSHKEEKTPMPPISSVLLAFSVLGELHSKLKSFGQMLLKYILRPLASCPSLHAVIESQPNIVIIRFESIMTNLEYPSPSEVFTKIRLVLEVLQKQLLDLPLDTDLENEKTSTVPLAEMLGDMIWEDLSECLIKNCLVYSIPTNSSKLQQYEEIIQSTEEFENALKEMRFLKGDTTDLLKYARNINSHFANKKCQDVIVAARNLMTSEIHNTVKIIPDSKINVPELPTPDEDNKLEVQKVSNTQYHEVMNLEPENTLDQHSFSLPTCRISESVKKLMELAYQTLLEATTSSDQCAVQLFYSVRNIFHLFHDVVPTYHKENLQKLPQLAAIHHNNCMYIAHHLLTLGHQFR
B5: hZW10 C2 (aa 1–698) (domain or fragment, human, UniProt O43264 1-698, looked up)
chain: MASFVTEVLAHSGRLEKEDLGTRISRLTRRVEEIKGEVCNMISKKYSEFLPSMQSAQGLITQVDKLSEDIDLLKSRIESEVRRDLHVSTGEFTDLKQQLERDSVVLSLLKQLQEFSTAIEEYNCALTEKKYVTGAQRLEEAQKCLKLLKSRKCFDLKILKSLSMELTIQKQNILYHLGEEWQKLIVWKFPPSKDTSSLESYLQTELHLYTEQSHKEEKTPMPPISSVLLAFSVLGELHSKLKSFGQMLLKYILRPLASCPSLHAVIESQPNIVIIRFESIMTNLEYPSPSEVFTKIRLVLEVLQKQLLDLPLDTDLENEKTSTVPLAEMLGDMIWEDLSECLIKNCLVYSIPTNSSKLQQYEEIIQSTEEFENALKEMRFLKGDTTDLLKYARNINSHFANKKCQDVIVAARNLMTSEIHNTVKIIPDSKINVPELPTPDEDNKLEVQKVSNTQYHEVMNLEPENTLDQHSFSLPTCRISESVKKLMELAYQTLLEATTSSDQCAVQLFYSVRNIFHLFHDVVPTYHKENLQKLPQLAAIHHNNCMYIAHHLLTLGHQFRLRLAPILCDGTATFVDLVPGFRRLGTECFLAQMRAQKGELLERLSSARNFSNMDDEENYSAASKAVRQVLHQLKRLGIVWQDVLPVNIYCKAMGTLLNTAISEVIGKITALEDISTEDGDRLYSLCKTVMDEGPQVFA
B6: hZW10 C8 (aa 1–224) (domain or fragment, human, UniProt O43264 1-224, looked up)
chain: MASFVTEVLAHSGRLEKEDLGTRISRLTRRVEEIKGEVCNMISKKYSEFLPSMQSAQGLITQVDKLSEDIDLLKSRIESEVRRDLHVSTGEFTDLKQQLERDSVVLSLLKQLQEFSTAIEEYNCALTEKKYVTGAQRLEEAQKCLKLLKSRKCFDLKILKSLSMELTIQKQNILYHLGEEWQKLIVWKFPPSKDTSSLESYLQTELHLYTEQSHKEEKTPMPPI
B7: hZW10 C5 (aa 1–410) (domain or fragment, human, UniProt O43264 1-410, looked up)
chain: MASFVTEVLAHSGRLEKEDLGTRISRLTRRVEEIKGEVCNMISKKYSEFLPSMQSAQGLITQVDKLSEDIDLLKSRIESEVRRDLHVSTGEFTDLKQQLERDSVVLSLLKQLQEFSTAIEEYNCALTEKKYVTGAQRLEEAQKCLKLLKSRKCFDLKILKSLSMELTIQKQNILYHLGEEWQKLIVWKFPPSKDTSSLESYLQTELHLYTEQSHKEEKTPMPPISSVLLAFSVLGELHSKLKSFGQMLLKYILRPLASCPSLHAVIESQPNIVIIRFESIMTNLEYPSPSEVFTKIRLVLEVLQKQLLDLPLDTDLENEKTSTVPLAEMLGDMIWEDLSECLIKNCLVYSIPTNSSKLQQYEEIIQSTEEFENALKEMRFLKGDTTDLLKYARNINSHFANKKCQDVIVA
B8: hZW10 C7 (aa 1–318) (domain or fragment, human, UniProt O43264 1-318, looked up)
chain: MASFVTEVLAHSGRLEKEDLGTRISRLTRRVEEIKGEVCNMISKKYSEFLPSMQSAQGLITQVDKLSEDIDLLKSRIESEVRRDLHVSTGEFTDLKQQLERDSVVLSLLKQLQEFSTAIEEYNCALTEKKYVTGAQRLEEAQKCLKLLKSRKCFDLKILKSLSMELTIQKQNILYHLGEEWQKLIVWKFPPSKDTSSLESYLQTELHLYTEQSHKEEKTPMPPISSVLLAFSVLGELHSKLKSFGQMLLKYILRPLASCPSLHAVIESQPNIVIIRFESIMTNLEYPSPSEVFTKIRLVLEVLQKQLLDLPLDTDLEN
B9: hZW10 C6 (aa 1–356) (domain or fragment, human, UniProt O43264 1-356, looked up)
chain: MASFVTEVLAHSGRLEKEDLGTRISRLTRRVEEIKGEVCNMISKKYSEFLPSMQSAQGLITQVDKLSEDIDLLKSRIESEVRRDLHVSTGEFTDLKQQLERDSVVLSLLKQLQEFSTAIEEYNCALTEKKYVTGAQRLEEAQKCLKLLKSRKCFDLKILKSLSMELTIQKQNILYHLGEEWQKLIVWKFPPSKDTSSLESYLQTELHLYTEQSHKEEKTPMPPISSVLLAFSVLGELHSKLKSFGQMLLKYILRPLASCPSLHAVIESQPNIVIIRFESIMTNLEYPSPSEVFTKIRLVLEVLQKQLLDLPLDTDLENEKTSTVPLAEMLGDMIWEDLSECLIKNCLVYSIPTNSS
B10: hZW10 full length (aa 1–779) (natural protein, human, UniProt O43264 1-779, looked up)
chain: MASFVTEVLAHSGRLEKEDLGTRISRLTRRVEEIKGEVCNMISKKYSEFLPSMQSAQGLITQVDKLSEDIDLLKSRIESEVRRDLHVSTGEFTDLKQQLERDSVVLSLLKQLQEFSTAIEEYNCALTEKKYVTGAQRLEEAQKCLKLLKSRKCFDLKILKSLSMELTIQKQNILYHLGEEWQKLIVWKFPPSKDTSSLESYLQTELHLYTEQSHKEEKTPMPPISSVLLAFSVLGELHSKLKSFGQMLLKYILRPLASCPSLHAVIESQPNIVIIRFESIMTNLEYPSPSEVFTKIRLVLEVLQKQLLDLPLDTDLENEKTSTVPLAEMLGDMIWEDLSECLIKNCLVYSIPTNSSKLQQYEEIIQSTEEFENALKEMRFLKGDTTDLLKYARNINSHFANKKCQDVIVAARNLMTSEIHNTVKIIPDSKINVPELPTPDEDNKLEVQKVSNTQYHEVMNLEPENTLDQHSFSLPTCRISESVKKLMELAYQTLLEATTSSDQCAVQLFYSVRNIFHLFHDVVPTYHKENLQKLPQLAAIHHNNCMYIAHHLLTLGHQFRLRLAPILCDGTATFVDLVPGFRRLGTECFLAQMRAQKGELLERLSSARNFSNMDDEENYSAASKAVRQVLHQLKRLGIVWQDVLPVNIYCKAMGTLLNTAISEVIGKITALEDISTEDGDRLYSLCKTVMDEGPQVFAPLSEESKNKKYQEEVPVYVPKWMPFKELMMMLQASLQEIGDRWADGKGPLAAAFSSSEVKALIRALFQNTERRAAALAKIK
B11: hZW10 C1 (aa 1–772) (domain or fragment, human, UniProt O43264 1-772, looked up)
chain: MASFVTEVLAHSGRLEKEDLGTRISRLTRRVEEIKGEVCNMISKKYSEFLPSMQSAQGLITQVDKLSEDIDLLKSRIESEVRRDLHVSTGEFTDLKQQLERDSVVLSLLKQLQEFSTAIEEYNCALTEKKYVTGAQRLEEAQKCLKLLKSRKCFDLKILKSLSMELTIQKQNILYHLGEEWQKLIVWKFPPSKDTSSLESYLQTELHLYTEQSHKEEKTPMPPISSVLLAFSVLGELHSKLKSFGQMLLKYILRPLASCPSLHAVIESQPNIVIIRFESIMTNLEYPSPSEVFTKIRLVLEVLQKQLLDLPLDTDLENEKTSTVPLAEMLGDMIWEDLSECLIKNCLVYSIPTNSSKLQQYEEIIQSTEEFENALKEMRFLKGDTTDLLKYARNINSHFANKKCQDVIVAARNLMTSEIHNTVKIIPDSKINVPELPTPDEDNKLEVQKVSNTQYHEVMNLEPENTLDQHSFSLPTCRISESVKKLMELAYQTLLEATTSSDQCAVQLFYSVRNIFHLFHDVVPTYHKENLQKLPQLAAIHHNNCMYIAHHLLTLGHQFRLRLAPILCDGTATFVDLVPGFRRLGTECFLAQMRAQKGELLERLSSARNFSNMDDEENYSAASKAVRQVLHQLKRLGIVWQDVLPVNIYCKAMGTLLNTAISEVIGKITALEDISTEDGDRLYSLCKTVMDEGPQVFAPLSEESKNKKYQEEVPVYVPKWMPFKELMMMLQASLQEIGDRWADGKGPLAAAFSSSEVKALIRALFQNTERRA

The experiment addresses T1, hZwint-1. As to the kind of experiment: two-hybrid.
B1: the β-galactosidase assay is 1.
B2 came in with a β-galactosidase assay of 2.14.
For the molecule B3, the β-galactosidase assay worked out at 445.
The result for B4 reads 2.5; that for B5, 2.6.
Then B6, with 233; and B7, with 26.6; and B8, with 132.
Then B9, with 275; and B10, with 187; and B11, with 3.4.
